Assay results published in article PMC9079618, “Evaluating Ylehd, a recombinant epoxide hydrolase from Yarrowia lipolytica as a potential biocatalyst for the resolution of benzyl glycidyl ether” (RSC Advances, 2018).

Tests used:
Assay in all cases: purified protein
c1ccc(OC[C@H]2CO2)cc1 = settings: 50 mM Tris pH 8.0, 30 °C, 30 min, 2 μg protein
c1ccc(OC[C@@H]2CO2)cc1 = settings: 50 mM Tris pH 8.0, 30 °C, 30 min, 2 μg protein
c1ccc(OCC2CO2)cc1 = settings: 50 mM Tris pH 8.0, 30 °C, 30 min, 2 μg protein
c1ccc(COCC2CO2)cc1 = assay type: biochemical, Yarrowia lipolytica; settings: 50 mM Tris pH 8.0, 30 °C, 30 min, 2 μg protein
c1ccc(COC[C@@H]2CO2)cc1 = assay type: biochemical, Yarrowia lipolytica; settings: 50 mM Tris pH 8.0, 30 °C, 30 min, 2 μg protein
c1ccc(COC[C@H]2CO2)cc1 = assay type: biochemical, Yarrowia lipolytica; settings: 50 mM Tris pH 8.0, 30 °C, 30 min, 10 μg protein

Substance: Ylehd (Yarrowia lipolytica)
- Km (c1ccc(OC[C@H]2CO2)cc1): 1320 ± 45 µM
- kcat (c1ccc(OC[C@H]2CO2)cc1): 33.8 s⁻¹
- kcat/Km (c1ccc(OC[C@H]2CO2)cc1): 25500 M⁻¹ s⁻¹
- Km (c1ccc(OC[C@@H]2CO2)cc1): 930 ± 71 µM
- kcat (c1ccc(OC[C@@H]2CO2)cc1): 15.7 s⁻¹
- kcat/Km (c1ccc(OC[C@@H]2CO2)cc1): 16600 M⁻¹ s⁻¹
- Km (c1ccc(OCC2CO2)cc1): 600 ± 9 µM
- kcat (c1ccc(OCC2CO2)cc1): 7.34 s⁻¹
- kcat/Km (c1ccc(OCC2CO2)cc1): 12200 M⁻¹ s⁻¹
- Km (c1ccc(COCC2CO2)cc1): 150 ± 2 µM
- kcat (c1ccc(COCC2CO2)cc1): 5.73 ± 0.54 s⁻¹
- kcat/Km (c1ccc(COCC2CO2)cc1): 38200 ± 1080 M⁻¹ s⁻¹
- Km (c1ccc(COC[C@@H]2CO2)cc1): 270 ± 24 µM
- kcat (c1ccc(COC[C@@H]2CO2)cc1): 12 ± 0.97 s⁻¹
- kcat/Km (c1ccc(COC[C@@H]2CO2)cc1): 44700 ± 870 M⁻¹ s⁻¹
- Km (c1ccc(COC[C@H]2CO2)cc1): 800 ± 10 µM
- kcat (c1ccc(COC[C@H]2CO2)cc1): 3.45 ± 0.089 s⁻¹
- kcat/Km (c1ccc(COC[C@H]2CO2)cc1): 4310 ± 70 M⁻¹ s⁻¹
